Test results from patent publication US10533231B2, “Artificial bioluminescent enzyme” (NATIONAL INSTITUTE OF ADVANCED INDUSTRIAL SCIENCE AND …, priority 2012, dated 2020).
Where a chain is given by its changes, count along the chain named.

B1: ALuc30: artificial luciferase containing a His tag, SEQ ID NO: 32 (protein)
chain: MMGIKVLFALICFALVQANHHHHHHHHDIVGVEGKFGTTDLETDLFTIVEDMNVISRDTDVDANRADRGRRGKLPGKKLPLEVLKELEANAQKAGCTRGCLICLSHIKCTAKMKKWLPGRCESWEGDKETGQGGIGEAIVDIPEIPGFKELAPMEQFIAQVDLCADCTTGCLKGLANVKCSALLKKWLPSRCAGFADKIQAQVDTIKGAGGS
modifications: His tag; Synthetic Aluc30
B2: ALuc23: artificial luciferase, SEQ ID NO: 16 (protein)
chain: B1 chain with H20P, H21T, H22E, H23N, H24K, H25D, H26D, H27I
modifications: Synthetic ALuc23
B3: ALuc32: artificial luciferase containing a c-Myc-tag, SEQ ID NO: 34 (protein)
chain: B1 chain with H20E, H21Q, H22K, H23L, H24I, H25S, H26E, H27E, I29L
modifications: c-Myc tag; Synthetic ALuc32
B4: ALuc31: artificial luciferase containing a His tag, SEQ ID NO: 33 (protein)
chain: B1 chain with K73E
modifications: His tag; Synthetic ALuc31
B5: ALuc33: artificial luciferase containing an HA-tag, SEQ ID NO: 35 (protein)
chain: B1 chain with H20M, H21M, H22Y, H23P, H24Y, H25D, H26V, H27P, I29Y, V30A
modifications: HA tag; Synthetic ALuc33
B6: ALuc22: artificial luciferase, SEQ ID NO: 15 (protein)
chain: MMGVKLIFAVLCVAVAQANATINENFEDIDLVAIGGSFADLETDLFTIVEDMNVISRDTDVDANRGGRGRRGKLPGKKLPLEVLKELEANAQKAGCTRGCLICLSHIKCTAKMKKWLPGRCESWEGDKETGQGGIGEAIVDIPEIPGFKDLEPMEQFIAQVDLCVDCTTGCLKGLANVKCSDLLKKWLPSRCATFASKIQAQVDKIKGAGGS
modifications: Synthetic ALuc22
B7: ALuc25: artificial luciferase, SEQ ID NO: 17 (protein)
chain: B6 chain with D150E, E152A, V165A, D182A, T194G, S197D, K205T
modifications: Synthetic ALuc25

Assays:
COS-7 cells [1] = experiment: Luminescence of ALuc25 to ALuc32 in lysate and medium (Example 1-18); format: cell-based; settings: 20 hours after plasmid introduction
Method: After the insertion of a gene encoding an enzyme sequence as mentioned above into a mammalian expression vector (pcDNA3.1 (+)), each plasmid was introduced into COS-7 cells. By the transformation of these cells, each luciferase was expressed, and some of the luciferase was secreted out of the cells and some of the luciferase retained in the cells. 20 hours after the plasmid introduction, media of the cells were sampled, and the remaining cells were lysed with a lysis buffer (lysate preparation). Immediately after 50 μL of assay solution (containing a substrate) was simultaneously added to each prepared medium (5 μL) or lysate (5 μL), the luminescence value was measured using a luminescence analyzer (LAS-4000; FujiFilm) (n=3) (FIG. 18).

[2] = Prolonged activity stability of ALucs secreted in medium (Example 1-19); format: physicochemical; settings: Day 0 to Day 25
Method: The prolonged activity stability of the artificial luciferases (ALucs) developed in the present invention was examined. First, a plasmid expressing each artificial luciferase (ALuc16, ALuc22, ALuc23, ALuc24, ALuc25, and ALuc30) (in the figure, each is referred to as A16, A22, A23, A24, A25, and A30) was introduced into COS-7 cells, and then culturing was continued for 24 hours. By the culturing, each artificial luciferase was secreted into the medium. The artificial luciferase secreted in the medium was collected, and a difference in enzymatic activity was measured under the same conditions in the following manner. On the first day (Day 0), 50 μL of assay solution (containing native coelenterazine, produced by Promega) was added to 5 μL of each medium, and the luminescence value (enzymatic activity) was measured using an LAS-4000 (produced by FujiFilm). In the same manner, the luminescence value on Day 8, Day 16, and Day 25 was compared with the luminescence value on Day 0 (FIG. 19 (A)).

[3] = Temporal change in luminescence after substrate injection, medium 25 days after expression (Example 1-19); format: biochemical; settings: for time of maximum luminescence value after infusion of coelenterazine: after long-term conservation (25 days); for temporal change of luminescence after substrate injection: medium 25 days after expression
Method: 50 μL of an assay solution (containing native coelenterazine, produced by Promega) was added to 5 μL of each medium 25 days after the expression, and the luminescence value (enzymatic activity) was measured using an LAS-4000 (produced by FujiFilm).

COS-7 cells [4] = experiment: Luminescence intensity of tag-containing ALucs secreted into medium (Example 1-21); format: cell-based; settings: culturing one day, Promega kit with nCTZ
Method: To compare the luminescence intensity of novel luciferases, a comparison experiment was performed under the same conditions as Example 1-2 (COS-7 cells, culturing for one day, using an assay kit produced by Promega) (FIG. 21 (B)). Finally, the luminescence intensity of each luciferase secreted into the medium was compared using an assay kit (containing native coelenterazine (nCTZ)) produced by Promega.

COS-7 cells [5] = experiment: Enzymatic activity confirmation of ALuc (section 3-1, 3-2); format: cell-based, African monkey; settings: vs conventional copepod luciferases
Method: First, using a known lipid reagent for gene introduction, an expression vector encoding ALuc is introduced into African monkey-derived COS-7 cells; as a control, an expression vector having a known GLuc without any mutation into the cells is also introduced in the same manner. At a predetermined time (from 10 to 20 hours, for example, 16 hours) after the introduction of the vector, a cell lysate is prepared using a known lysis reagent.
Thereafter, the cell lysate is mixed with a known substrate solution containing coelenterazine, and its color intensity, temporal stability in luminescence, etc., are measured.
The luminescence intensity may be found by measuring the intensity at a specific wavelength using a known luminescence spectrophotometer after addition of a known substrate. By performing the measurement every minute, the temporal stability in luminescence can be evaluated. To measure a shift to a longer wavelength, scanning of the entire wavelength is necessary.

COS-7 cells [6] = experiment: Comparison of luminescence intensity of ALucs (Example 1-2); format: cell-based, African green monkey; settings: COS-7 cultured overnight, Promega assay solution, LAS-4000
Excerpt: The artificial luciferase (ALuc) genes synthesized by the above process were subcloned into mammalian cell expression vectors (pcDNA3.1 (+)). Each expression vector was transfected with African green monkey kidney-derived COS-7 cells, and the luminescence intensity, luminescence stability, and red-shifted degree of artificial luciferases (ALucs) were compared (FIGS. 2 to 5).
First, the luminescence intensity of artificial luciferases (ALucs) was compared (FIG. 2). For the comparison, COS-7 cells containing a vector encoding each luciferase were cultured overnight, and then the relative luminescence intensity was measured by using an assay solution, which is a mixture of a cell lysis solution and a substrate, produced by Promega, and a luminescence image analyzer (LAS-4000).

COS-7 cells [7] = experiment: Luminescence stability of ALucs after substrate injection (Example 1-3); format: cell-based, African green monkey; settings: Promega lysis and reaction solution
Method: The luminescence stability of the artificial luciferases (ALucs) of the present invention was examined in various respects (FIG. 3). COS-7 cells containing each luciferase gene were cultured for 9 hours, and treated with a cell lysis solution produced by Promega for 20 minutes. Temporal changes in luciferase luminescence intensity after the introduction of a substrate-containing reaction solution produced by Promega were observed every five minutes (FIG. 3A).
This experiment was expanded to artificial luciferases ALuc16 to ALuc25 (FIG. 3BC).

[8] = Heat resistance of ALucs in lysate (Example 1-4); format: physicochemical; settings: for change of luminescence intensity by heating: 80° C. for 10 minutes
Method: The heat resistance and degree of extracellular secretion of artificial luciferases of the present invention were measured (FIG. 4). First, to measure heat resistance, COS-7 cells containing each luciferase were lysed in cell lysis solutions produced by Promega to prepare lysates. Subsequently, same samples were allowed to stand at room temperature or heated at 80° C. for 10 minutes, and changes in luminescence intensity were compared by using a (substrate-containing) reaction solution produced by Promega.

COS-7 cells [9] = experiment: Degree of extracellular secretion of ALucs (Example 1-4); format: cell-based, African green monkey; settings: luminescence intensity of the medium, overnight culture
Method: Further, each luciferase (ALuc) was introduced into COS-7 cells, culturing was performed overnight, and then the amount of each luciferase (ALuc) secreted from the cells was measured based on the luminescence intensity of the medium (FIG. 4B).

COS-7 cells [10] = experiment: Luminescence characteristics of tag-containing ALucs (Example 1-22); format: cell-based; settings: medium two days after gene transfer
Method: To compare the relative luminescence intensity of these luciferases, the following experiment was conducted. First, a gene encoding each luciferase was subcloned into pcDNA3.1 (+), which is a eukaryotic expression vector, and each vector was introduced into COS-7 cells. Two days after gene transfer, the relative luminescence intensity of luciferase secreted into each medium was compared using a luminescence reagent produced by Promega.

Row | Molecule | luminescence from cell medium (COS-7 cells [1]) | luminescence value from lysate (COS-7 cells [1]) | prolonged enzymatic activity stability [2] | time of maximum luminescence value after infusion of coelenterazine [3] | temporal change of luminescence after substrate injection [3] | luminescence intensity of luciferase secreted into the medium (COS-7 cells [4]) | luminescence stability (general statement) (COS-7 cells [5]) | luminescence intensity higher than that of conventional GLuc, Renilla luciferase and MpLuc4 (COS-7 cells [6]) | luminescence intensity (initial) (COS-7 cells [7]) | change of luminescence intensity by heating [8] | extracellular secretion (COS-7 cells [9]) | relative luminescence intensity (COS-7 cells [10]) | luminescence stability / sustainability after substrate injection (COS-7 cells [7]) | reduction of luminescence intensity by heating ([8]; 80° C. for 10 minutes vs room temperature)
1 | B1 | strong bioluminescence | extremely higher than those of conventional GLuc and MpLuc4 | maintained stable enzymatic activity until Day 25 | 12 min | several times higher | relatively high luminescence intensity | remarkably stable luminescence signals |  |  |  |  |  |  | 
2 | B2 |  |  |  | 12 min | several times higher |  | remarkably stable luminescence signals | about 50 folds | advantageous initial luminescence intensity | a remarkable reduction in luminescence intensity that may be due to heating was not observed | relatively high extracellular secretion |  |  | 
3 | B3 |  |  |  |  |  |  | remarkably stable luminescence signals |  |  |  |  | relatively poor luminescence intensity |  | 
4 | B4 | strong bioluminescence | extremely higher than those of conventional GLuc and MpLuc4 |  |  |  |  | remarkably stable luminescence signals |  |  |  |  |  |  | 
5 | B5 |  |  |  |  |  | relatively high luminescence intensity | remarkably stable luminescence signals |  |  |  |  | relatively high luminescence intensity |  | 
6 | B6 |  |  | significant decrease in enzymatic activity |  |  |  | remarkably stable luminescence signals | about 50 folds | advantageous initial luminescence intensity | significantly decreased | low extracellular secretion |  | decreased to about half of the original luminescence intensity after 6 minutes | about 40%
7 | B7 |  | extremely higher than those of conventional GLuc and MpLuc4 | maintained stable enzymatic activity until Day 25 |  |  |  | remarkably stable luminescence signals | about 50 folds | advantageous initial luminescence intensity | a remarkable reduction in luminescence intensity that may be due to heating was not observed | low extracellular secretion |  |  | 
